From US20220040304A1, “A COMPOSITION FOR CANCER CELL DEATH AND ITS USE” (Industry-University Cooperation Foundation Hanyang …, priority 2018, published 2022)
Where “and” joins values, the source holds several entries; their conditions need not be identical. Equal entries are not always repeated.

Assay: Fluorescence assay of purified proteins (excitation/emission)
Type: physicochemical
Settings: protein 10 μM in 1×PBS
Protocol: 100 μL of buffer (1×PBS) containing the protein purified in Example 1 (final concentration: 10 μM) was dispensed into a 96-well plate (SPL Cell Culture Plate, 96 well (SPL, Cat #32096)). Afterward, a fluorescence signal level was detected by fluorescence assay using a Thermo Scientific™ Varioskan™ Flash Multimode Reader.

## MS: first protein MiniSOG, ROS-generating protein (singlet oxygen), expressed from pRSET-MiniSOG, 13 kDa [reference compound]
  emission wavelength (fluorescence): 500 nm and 528 nm
  excitation wavelength: 448 nm
